How the values were obtained:
[1] = test system: HeLa Kyoto; experiment: solubility change mitosis vs G1/S (difference of NP-40 vs SDS log2 ratios) (log2 ratio difference); higher = more soluble in mitosis
[2] = test system: HeLa Kyoto; experiment: melting temperature (median over replicates), in situ; higher = more thermally stable
[3] = test system: HeLa Kyoto; experiment: thermal stability score vs G1/S (z-score of summed log2 fold changes over temperatures); higher = more thermally stable than in G1/S
[4] = cell cycle stage: early G1 (4.5 h after nocodazole release)
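Throughout, for melting temperature (median over replicates), in situ: HeLa Kyoto cells synchronized by double thymidine or nocodazole block, proteins quantified by TMT10plex mass spectrometry, three independent biological replicates.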
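Throughout, for solubility change mitosis vs G1/S (difference of NP-40 vs SDS log2 ratios): synchronized HeLa Kyoto cells (double thymidine block for G1/S, nocodazole release for mitosis), protein amounts in NP-40 versus SDS lysates quantified by mass spectrometry, three biological replicates.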
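Throughout, for thermal stability score vs G1/S (z-score of summed log2 fold changes over temperatures): synchronized HeLa Kyoto cells, proteins quantified by TMT10plex mass spectrometry, three biological replicates, mitosis taken 0.5 h after nocodazole release, G1/S directly after double thymidine block.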

Substance | solubility change mitosis (log2) [1] | further results
RPL36 | 0.849 | 
RPL27A | 1.02 | 
ACACA | -0.227 | 
RPS14 | 0.203 | 
KIAA1524 | -0.103 | 
RPL24 | 0.971 | 
GOPC | -0.0477 | 
RBX1 | -0.338 | 
RPS27A | 0.852 | 
KIAA0907 | 0.046 | 
POLR2K | 0.187 | 
MRPL54 | 0.343 | 
MRPS16 | -0.0244 | 
DAP3 | -0.0659 | 
MRPL51 | -0.136 | 
SETDB1 | -0.0625 | 
RPL31 | 0.763 | 
NUDT5 | 0.0137 | 
TOLLIP | 0.0779 | 
MRPS27 | -0.149 | 
METAP1 | 0.0188 | 
MRPL11 | 0.173 | 
SNRPN | 0.368 | 
MRPL39 | -0.14 | 
MRPL45 | -0.0934 | 

Substance | solubility change mitosis (log2) [1] | further results
RPL34 | 0.894 | 
ARPC4 | -0.115 | 
RPS3 | 0.437 | 
MRPL27 | 0.243 | 
RPL15 | 0.657 | 
MRPL37 | -0.0819 | 
MRPS15 | 0.176 | 
MRPL48 | -0.0228 | 
ALYREF | 0.776 | 
CAPZA1 | -0.0799 | 
INPP4A | -0.0329 | 
KPNA2 | 0.136 | 
RPL23A | 0.826 | 
MESQKEARTLQEPVARPSGASSSQTPNDKERREGGAVPAAAALGAEADDDSADGLWELPVEPAERRPECTRCSRPQKVCLCPFLPAHPLHISTHLYIIQHPAEENKVLRTVPLLAACLPQDKCKVKIGRRFSEERDPELSTVCRKSGTLILYPGAEAANLEEFILDSPVYPSTIIIIDGTWSQAKDIFYKNSLFRHPKQVQLKTSISSQYVIRMQPTNRCLSTLECAAVALSILEKNNYIQETLLRPLQALCSFQLQHGAQIRLSKEHLLKNGLYPKPMPKNKRKLRKMELLMNSVKI [DTWD2] |  | melting temperature ([2]; cell cycle stage: mitosis): 51.2 °C; thermal stability score [3, 4]: 0.37; thermal stability score ([3]; cell cycle stage: mitosis): 0.624
MTMR1 | 0.0778 | 
MGSQEVLGHAARLASSGLLLQVLFRLITFVLNAFILRFLSKEIVGVVNVRLTLLYSTTLFLAREAFRRACLSGGTQRDWSQTLNLLWLTVPLGVFWSLFLGWIWLQLLEVPDPNVVPHYATGVVLFGLSAVVELLGEPFWVLAQAHMFVKLKVIAESLSVILKSVLTAFLVLWLPHWGLYIFSLAQLFYTTVLVLCYVIYFTKLLGSPESTKLQTLPVSRITDLLPNITRNGAFINWKEAKLTWSFFKQSFLKQILTEGERYVMTFLNVLNFGDQGVYDIVNNLGSLVARLIFQPIEESFYIFFAKVLERGKDATLQKQEDVAVAAAVLESLLKLALLAGLTITVFGFAYSQLALDIYGGTMLSSGSGPVLLRSYCLYVLLLAINGVTECFTFAAMSKEEVDRYNFVMLALSSSFLVLSYLLTRWCGSVGFILANCFNMGIRITQSLCFIHRYYRRSPHRPLAGLHLSPVLLGTFALSGGVTAVSEVFLCCEQGWPARLAHIAVGAFCLGATLGTAFLTETKLIHFLRTQLGVPRRTDKMT [RFT1] |  | melting temperature ([2]; cell cycle stage: G1/S): 57.1 °C; melting temperature ([2]; cell cycle stage: mitosis): 56.9 °C; thermal stability score [3, 4]: -1.46; thermal stability score ([3]; cell cycle stage: mitosis): -1.12
MAEFPSKVSTRTSSPAQGAEASVSALRPDLGFVRSRLGALMLLQLVLGLLVWALIADTPYHLYPAYGWVMFVAVFLWLVTIVLFNLYLFQLHMKLYMVPWPLVLMIFNISATVLYITAFIACSAAVDLTSLRGTRPYNQRAAASFFACLVMIAYGVSAFFSYQAWRGVGSNAATSQMAGGYA [PLLP] |  | melting temperature ([2]; cell cycle stage: G1/S): 56.7 °C; melting temperature ([2]; cell cycle stage: mitosis): 58.5 °C; thermal stability score [3, 4]: -2.71; thermal stability score ([3]; cell cycle stage: mitosis): -3.25
MSGTRASNDRPPGAGGVKRGRLQQEAAATGSRVTVVLGAQWGDEGKGKVVDLLATDADIISRCQGGNNAGHTVVVDGKEYDFHLLPSGIINTKAVSFIGNGVVIHLPGLFEEAEKNEKKGLKDWEKRLIISDRAHLVFDFHQAVDGLQEVQRQAQEGKNIGTTKKGIGPTYSSKAARTGLRICDLLSDFDEFSSRFKNLAHQHQSMFPTLEIDIEGQLKRLKGFAERIRPMVRDGVYFMYEALHGPPKKILVEGANAALLDIDFGTYPFVTSSNCTVGGVCTGLGIPPQNIGDVYGVVKAYTTRVGIGAFPTEQINEIGGLLQTRGHEWGVTTGRKRRCGWLDLMILRYAHMVNGFTALALTKLDILDVLGEVKVGVSYKLNGKRIPYFPANQEMLQKVEVEYETLPGWKADTTGARRWEDLPPQAQNYIRFVENHVGVAVKWVGVGKSRESMIQLF [ADSSL1] |  | melting temperature ([2]; cell cycle stage: G1/S): 55.3 °C; melting temperature ([2]; cell cycle stage: mitosis): 55.4 °C; thermal stability score [3, 4]: -1.69; thermal stability score ([3]; cell cycle stage: mitosis): -2.13
MGLPALEFSDCCLDSPHFRETLKSHEAELDKTNKFIKELIKDGKSLISALKNLSSAKRKFADSLNEFKFQCIGDAETDDEMCIARSLQEFATVLRNLEDERIRMIENASEVLITPLEKFRKEQIGAAKEAKKKYDKETEKYCGILEKHLNLSSKKKESQLQEADSQVDLVRQHFYEVSLEYVFKVQEVQERKMFEFVEPLLAFLQGLFTFYHHGYELAKDFGDFKTQLTISIQNTRNRFEGTRSEVESLMKKMKENPLEHKTISPYTMEGYLYVQEKRHFGTSWVKHYCTYQRDSKQITMVPFDQKSGGKGGEDESVILKSCTRRKTDSIEKRFCFDVEAVDRPGVITMQALSEEDRRLWMEAMDGREPVYNSNKDSQSEGTAQLDSIGFSIIRKCIHAVETRGINEQGLYRIVGVNSRVQKLLSVLMDPKTASETETDICAEWEIKTITSALKTYLRMLPGPLMMYQFQRSFIKAAKLENQESRVSEIHSLVHRLPEKNRQMLQLLMNHLANVANNHKQNLMTVANLGVVFGPTLLRPQEETVAAIMDIKFQNIVIEILIENHEKIFNTVPDMPLTNAQLHLSRKKSSDSKPPSCSERPLTLFHTVQSTEKQEQRNSIINSSLESVSSNPNSILNSSSSLQPNMNSSDPDLAVVKPTRPNSLPPNPSPTSPLSPSWPMFSAPSSPMPTSSTSSDSSPVRSVAGFVWFSVAAVVLSLARSSLHAVFSLLVNFVPCHPNLHLLFDRPEEAVHEDSSTPFRKAKALYACKAEHDSELSFTAGTVFDNVHPSQEPGWLEGTLNGKTGLIPENYVEFL [ARHGAP26] |  | melting temperature ([2]; cell cycle stage: mitosis): 52 °C; thermal stability score [3, 4]: -0.227; thermal stability score ([3]; cell cycle stage: mitosis): -0.147
MANAEVSVPVGDVVVVPTEGNEGENPEDTKTQVILQLQPVQQGLFIDGHFYNRIYEAGSENNTAVVAVETHTIHKIEEGIDTGTIEANEDMEIAYPITCGESKAILLWKKFVCPGINVKCVKFNDQLISPKHFVHLAGKSTLKDWKRAIRLGGIMLRKMMDSGQIDFYQHDKVCSNTCRSTKFDLLISSARAPVPGQQTSVVQTPTSADGSITQIAISEESMEEAGLEWNSALTAAVTMATEEGVKKDSEEISEDTLMFWKGIADVGLMEEVVCNIQKEIEELLRGVQQRLIQAPFQVTDAAVLNNVAHTFGLMDTVKKVLDNRRNQVEQGEEQFLYTLTDLERQLEEQKKQGQDHRLKSQTVQNVVLMPVSTPKPPKRPRLQRPASTTVLSPSPPVQQPQFTVISPITITPVGQSFSMGNIPVATLSQGSSPVTVHTLPSGPQLFRYATVVSSAKSSSPDTVTIHPSSSLALLSSTAMQDGSTLGNMTTMVSPVELVAMESGLTSAIQAVESTSEDGQTIIEIDPAPDPEAEDTEGKAVILETELRTEEKVVAEMEEHQHQVHNVEIVVLED [GMEB1] |  | melting temperature ([2]; cell cycle stage: G1/S): 49 °C; thermal stability score [3, 4]: 0.789; thermal stability score ([3]; cell cycle stage: mitosis): 2.68
MLKPALEPRGGFSFENCQRNASLERVLPGLKVPHARKTGTTIAGLVFQDGVILGADTRATNDSVVADKSCEKIHFIAPKIYCCGAGVAADAEMTTRMVASKMELHALSTGREPRVATVTRILRQTLFRYQGHVGASLIVGGVDLTGPQLYGVHPHGSYSRLPFTALGSGQDAALAVLEDRFQPNMTLEAAQGLLVEAVTAGILGDLGSGGNVDACVITKTGAKLLRTLSSPTEPVKRSGRYHFVPGTTAVLTQTVKPLTLELVEETVQAMEVE [PSMB10] |  | melting temperature ([2]; cell cycle stage: G1/S): 53.3 °C; melting temperature ([2]; cell cycle stage: mitosis): 52.6 °C; thermal stability score [3, 4]: 0.227; thermal stability score ([3]; cell cycle stage: mitosis): 0.56
METDLNSQDRKDLDKFIKFFALKTVQVIVQARLGEKICTRSSSSPTGSDWFNLAIKDIPEVTHEAKKALAGQLPAVGRSMCVEISLKTSEGDSMELEIWCLEMNEKCDKEIKVSYTVYNRLSLLLKSLLAITRVTPAYRLSRKQGHEYVILYRIYFGEVQLSGLGEGFQTVRVGTVGTPVGTITLSCAYRINLAFMSTRQFERTPPIMGIIIDHFVDRPYPSSSPMHPCNYRTAGEDTGVIYPSVEDSQEVCTTSFSTSPPSQLSSSRLSYQPAALGVGSADLAYPVVFAAGLNATHPHQLMVPGKEGGVPLAPNQPVHGTQADQERLATCTPSDRTHCAATPSSSEDTETVSNSSEGRASPHDVLETIFVRKVGAFVNKPINQVTLTSLDIPFAMFAPKNLELEDTDPMVNPPDSPETESPLQGSLHSDGSSGGSSGNTHDDFVMIDFKPAFSKDDILPMDLGTFYREFQNPPQLSSLSIDIGAQSMAEDLDSLPEKLAVHEKNVREFDAFVETLQ [ATG13] |  | melting temperature ([2]; cell cycle stage: G1/S): 51.7 °C; melting temperature ([2]; cell cycle stage: mitosis): 52.2 °C; thermal stability score [3, 4]: 0.178; thermal stability score ([3]; cell cycle stage: mitosis): -1.05
MREIVHLQAGQCGNQIGAKFWEVISDEHGIDPTGTYHGDSDLQLERINVYYNEATGGKYVPRAVLVDLEPGTMDSVRSGPFGQIFRPDNFVFGQSGAGNNWAKGHYTEGAELVDSVLDVVRKEAESCDCLQGFQLTHSLGGGTGSGMGTLLISKIREEYPDRIMNTFSVVPSPKVSDTVVEPYNATLSVHQLVENTDETYCIDNEALYDICFRTLKLTTPTYGDLNHLVSATMSGVTTCLRFPGQLNADLRKLAVNMVPFPRLHFFMPGFAPLTSRGSQQYRALTVPELTQQMFDAKNMMAACDPRHGRYLTVAAVFRGRMSMKEVDEQMLNVQNKNSSYFVEWIPNNVKTAVCDIPPRGLKMSATFIGNSTAIQELFKRISEQFTAMFRRKAFLHWYTGEGMDEMEFTEAESNMNDLVSEYQQYQDATAEEEGEFEEEAEEEVA [TUBB4B] |  | melting temperature ([2]; cell cycle stage: mitosis): 54.4 °C; thermal stability score [3, 4]: 0.304; thermal stability score ([3]; cell cycle stage: mitosis): -1.31
MIKAILIFNNHGKPRLSKFYQPYSEDTQQQIIRETFHLVSKRDENVCNFLEGGLLIGGSDNKLIYRHYATLYFVFCVDSSESELGILDLIQVFVETLDKCFENVCELDLIFHVDKVHNILAEMVMGGMVLETNMNEIVTQIDAQNKLEKSEAGLAGAPARAVSAVKNMNLPEIPRNINIGDISIKVPNLPSFK [AP3S1] |  | melting temperature ([2]; cell cycle stage: G1/S): 50.8 °C; melting temperature ([2]; cell cycle stage: mitosis): 51.2 °C; thermal stability score [3, 4]: -0.187; thermal stability score ([3]; cell cycle stage: mitosis): -0.378
MGVNAVHWFRKGLRLHDNPALKECIQGADTIRCVYILDPWFAGSSNVGINRWRFLLQCLEDLDANLRKLNSRLFVIRGQPADVFPRLFKEWNITKLSIEYDSEPFGKERDAAIKKLATEAGVEVIVRISHTLYDLDKIIELNGGQPPLTYKRFQTLISKMEPLEIPVETITSEVIEKCTTPLSDDHDEKYGVPSLEELGFDTDGLSSAVWPGGETEALTRLERHLERKAWVANFERPRMNANSLLASPTGLSPYLRFGCLSCRLFYFKLTDLYKKVKKNSSPPLSLYGQLLWREFFYTAATNNPRFDKMEGNPICVQIPWDKNPEALAKWAEGRTGFPWIDAIMTQLRQEGWIHHLARHAVACFLTRGDLWISWEEGMKVFEELLLDADWSINAGSWMWLSCSSFFQQFFHCYCPVGFGRRTDPNGDYIRRYLPVLRGFPAKYIYDPWNAPEGIQKVAKCLIGVNYPKPMVNHAEASRLNIERMKQIYQQLSRYRGLGLLASVPSNPNGNGGFMGYSAENIPGCSSSGSCSQGSGILHYAHGDSQQTHLLKQGRSSMGTGLSGGKRPSQEEDTQSIGPKVQRQSTN [CRY1] |  | melting temperature ([2]; cell cycle stage: mitosis): 52 °C; thermal stability score [3, 4]: 0.298; thermal stability score ([3]; cell cycle stage: mitosis): -0.281

From the supplement of paper PMC5998384
